The target of assay [1] is recombinant SARS-CoV-2 spike receptor-binding domain (rRBD), Wuhan-Hu-1 isolate, residues 319-541 wi (SARS-CoV-2) (UniProt P0DTC2). The assay is described as follows: non-reducing SDS-PAGE with western blot. (In general: A western blot detects proteins with antibodies after separation by electrophoresis.)
The target is the same in assay [2]. The assay is described as follows: non-reducing SDS-PAGE.
The target is the same in assay [3]. In words: SEC. (Size exclusion chromatography separates by hydrodynamic size, large species first.)

“recombinant SARS-CoV-2 spike receptor-binding domain (rRBD), Wuhan-Hu-1 isolate, residues 319-541 wi (from UniProt P0DTC2 319-541) (domain or fragment)”: the percent dimer of total rRBD (4 dpi) in assay [1] is 17.9%. Also, the stoichiometry N in assay [1], in assay [2] and in assay [3] was 2 throughout.

The term stoichiometry N denotes a count of units in the complex or per binding partner.

For the origin of these results see PMC9785345.
